In article PMC7573561:

Biological target: Actin (coated on BLI biosensors)
Assay: BLI; Octet RED, 25 C; APS (aminopropylsilane) biosensors coated with 10 ug/mL actin; rPDCP-1 in PBS pH 7.4 with 0.05% Tween 20 and 0.1% BSA; 300 s association, 120 s dissociation

Q: “Recombinant PDZ-domain-containing-protein-1 (rPDCP-1) (natural protein)” was tested. Which Kd did it give?
A: 783 nM
